Measurements: patent US20260184804A1

Experiments:
[1] = molecular target: Apical domain construct of hTfR1 displayed on M13 phage (human); experiment: Seqitope mutagenic scanning of the phage-displayed apical domain of hTfR1
[2] = molecular target: His-tagged ectodomain of human transferrin receptor 1 (hTfR1), amino acids R121-F760 (human) (UniProt P02786); experiment: SPR; binder captured on protein A, receptor as analyte 0.156-40 nM; no hTf
[3] = molecular target: His-tagged ectodomain of cynomolgus transferrin receptor 1 (cTfR1), amino acids R121-F760 (cynomolgus monkey); experiment: as above
[4] = molecular target: His-tagged ectodomain of human transferrin receptor 1 (hTfR1), amino acids R121-F760 (human) (UniProt P02786); experiment: SPR (Biacore T200, single-cycle); hTfR1 captured on amine-coupled hTf, binder as analyte 6.25-100 nM
[5] = molecular target: His-tagged ectodomain of human transferrin receptor 1 (hTfR1), amino acids R121-F760 (human) (UniProt P02786); experiment: SPR; binder captured on protein A, receptor as analyte 0.156-40 nM; with 250 nM hTf
[6] = molecular target: His-tagged ectodomain of cynomolgus transferrin receptor 1 (cTfR1), amino acids R121-F760 (cynomolgus monkey); experiment: as above

Sequence of His-tagged ectodomain of human transferrin receptor 1 (hTfR1), amino acids R121-F760 (human) (P02786 other isoform, or with tags, fused parts or gaps limits assumed): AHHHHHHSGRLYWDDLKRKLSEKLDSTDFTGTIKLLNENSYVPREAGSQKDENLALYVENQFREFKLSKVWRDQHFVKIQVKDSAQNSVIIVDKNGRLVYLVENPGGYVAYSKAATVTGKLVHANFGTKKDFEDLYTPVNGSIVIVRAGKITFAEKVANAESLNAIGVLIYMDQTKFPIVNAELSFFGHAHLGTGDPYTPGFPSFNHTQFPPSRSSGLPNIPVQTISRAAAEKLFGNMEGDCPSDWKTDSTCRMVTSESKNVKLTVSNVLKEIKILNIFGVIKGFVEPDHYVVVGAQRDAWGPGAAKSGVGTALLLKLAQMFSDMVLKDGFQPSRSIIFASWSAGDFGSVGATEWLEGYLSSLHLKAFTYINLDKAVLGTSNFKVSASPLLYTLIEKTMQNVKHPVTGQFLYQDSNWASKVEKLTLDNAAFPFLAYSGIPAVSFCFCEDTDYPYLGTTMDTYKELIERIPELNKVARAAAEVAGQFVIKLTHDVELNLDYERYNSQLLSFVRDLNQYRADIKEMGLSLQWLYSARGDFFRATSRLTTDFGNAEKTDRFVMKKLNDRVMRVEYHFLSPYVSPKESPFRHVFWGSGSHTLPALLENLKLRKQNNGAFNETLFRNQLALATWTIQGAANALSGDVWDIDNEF
Sequence of His-tagged ectodomain of cynomolgus transferrin receptor 1 (cTfR1), amino acids R121-F760 (cynomolgus monkey) (Q5RDH6 other isoform, or with tags, fused parts or gaps limits assumed): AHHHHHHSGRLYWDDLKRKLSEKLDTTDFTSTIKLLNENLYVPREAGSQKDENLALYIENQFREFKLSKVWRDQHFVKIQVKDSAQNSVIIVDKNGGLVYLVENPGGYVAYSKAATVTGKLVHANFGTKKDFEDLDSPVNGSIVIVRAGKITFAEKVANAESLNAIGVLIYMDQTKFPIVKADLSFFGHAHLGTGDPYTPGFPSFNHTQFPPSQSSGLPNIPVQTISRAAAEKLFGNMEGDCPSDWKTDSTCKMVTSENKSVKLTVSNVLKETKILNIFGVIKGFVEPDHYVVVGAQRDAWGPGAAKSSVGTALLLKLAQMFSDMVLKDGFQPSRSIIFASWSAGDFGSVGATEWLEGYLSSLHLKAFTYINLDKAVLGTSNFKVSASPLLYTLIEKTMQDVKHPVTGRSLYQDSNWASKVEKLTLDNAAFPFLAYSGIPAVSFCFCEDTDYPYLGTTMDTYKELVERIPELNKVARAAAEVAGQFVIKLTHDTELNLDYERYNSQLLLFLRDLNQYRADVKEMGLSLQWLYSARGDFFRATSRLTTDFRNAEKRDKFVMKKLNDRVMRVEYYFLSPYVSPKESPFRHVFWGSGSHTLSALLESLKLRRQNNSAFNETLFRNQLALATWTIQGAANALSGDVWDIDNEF

“Benchmark antibody 128.1 (BA1), full length human IgG1” showed a Binding Ratio (BR) of residue D242 [1] of 3.56, a Binding Ratio (BR) of residue E369 [1] of 6.88 and a Binding Ratio (BR) of residue G351 [1] of 3.27. For the same substance, the Binding Ratio (BR) of residue L246 [1] was 3.36, the Binding Ratio (BR) of residue P249 [1] was 2.64 and the Binding Ratio (BR) of residue R364 [1] was 2.64. The Binding Ratio (BR) of residue V366 [1] was 4.15, the Kd [2] was 0.101 nM and the koff [2] was 8.87e-05 s⁻¹. It also gave a kon [2] of 882000 M⁻¹ s⁻¹, a Kd [3] of 0.414 nM and a koff [3] of 8.85e-05 s⁻¹. It also gave a kon [3] of 214000 M⁻¹ s⁻¹, a Kd [4] of 0.0199 nM and a koff [4] of 5.63e-05 s⁻¹. The kon [4] was 2.82e+06 M⁻¹ s⁻¹, the Kd [5] was 0.0834 nM and the koff [5] was 5.77e-05 s⁻¹. For the same substance, the kon [5] was 692000 M⁻¹ s⁻¹, the Kd [6] was 0.33 nM and the koff [6] was 8e-05 s⁻¹. The kon [6] was 242000 M⁻¹ s⁻¹.
